Test results taken from IntAct's records for PubMed 16499958.

B1: Rab5 GDP/GTP exchange factor (Homo sapiens), Q9UJ41 (parent)
chain: MSLKSERRGIHVDQSDLLCKKGCGYYGNPAWQGFCSKCWREEYHKARQKQIQEDWELAERLQREEEEAFASSQSSQGAQSLTFSKFEEKKTNEKTRKVTTVKKFFSASSRVGSKKEIQEAKAPSPSINRQTSIETDRVSKEFIEFLKTFHKTGQEIYKQTKLFLEGMHYKRDLSIEEQSECAQDFYHNVAERMQTRGKVPPERVEKIMDQIEKYIMTRLYKYVFCPETTDDEKKDLAIQKRIRALRWVTPQMLCVPVNEDIPEVSDMVVKAITDIIEMDSKRVPRDKLACITKCSKHIFNAIKITKNEPASADDFLPTLIYIVLKGNPPRLQSNIQYITRFCNPSRLMTGEDGYYFTNLCCAVAFIEKLDAQSLNLSQEDFDRYMSGQTSPRKQEAESWSPDACLGVKQMYKNLDLLSQLNERQERIMNEAKKLEKDLIDWTDGIAREVQDIVEKYPLEIKPPNQPLAAIDSENVENDKLPPPLQPQVYAG
B2: Unconventional myosin-VI (Homo sapiens), Q9UM54 (parent)
chain: MEDGKPVWAPHPTDGFQMGNIVDIGPDSLTIEPLNQKGKTFLALINQVFPAEEDSKKDVEDNCSLMYLNEATLLHNIKVRYSKDRIYTYVANILIAVNPYFDIPKIYSSEAIKSYQGKSLGTRPPHVFAIADKAFRDMKVLKMSQSIIVSGESGAGKTENTKFVLRYLTESYGTGQDIDDRIVEANPLLEAFGNAKTVRNNNSSRFGKFVEIHFNEKSSVVGGFVSHYLLEKSRICVQGKEERNYHIFYRLCAGASEDIREKLHLSSPDNFRYLNRGCTRYFANKETDKQILQNRKSPEYLKAGSMKDPLLDDHGDFIRMCTAMKKIGLDDEEKLDLFRVVAGVLHLGNIDFEEAGSTSGGCNLKNKSAQSLEYCAELLGLDQDDLRVSLTTRVMLTTAGGTKGTVIKVPLKVEQANNARDALAKTVYSHLFDHVVNRVNQCFPFETSSYFIGVLDIAGFEYFEHNSFEQFCINYCNEKLQQFFNERILKEEQELYQKEGLGVNEVHYVDNQDCIDLIEAKLVGILDILDEENRLPQPSDQHFTSAVHQKHKDHFRLTIPRKSKLAVHRNIRDDEGFIIRHFAGAVCYETTQFVEKNNDALHMSLESLICESRDKFIRELFESSTNNNKDTKQKAGKLSFISVGNKFKTQLNLLLDKLRSTGASFIRCIKPNLKMTSHHFEGAQILSQLQCSGMVSVLDLMQGGYPSRASFHELYNMYKKYMPDKLARLDPRLFCKALFKALGLNENDYKFGLTKVFFRPGKFAEFDQIMKSDPDHLAELVKRVNHWLTCSRWKKVQWCSLSVIKLKNKIKYRAEACIKMQKTIRMWLCKRRHKPRIDGLVKVGTLKKRLDKFNEVVSVLKDGKPEMNKQIKNLEISIDTLMAKIKSTMMTQEQIQKEYDALVKSSEELLSALQKKKQQEEEAERLRRIQEEMEKERKRREEDEKRRRKEEEERRMKLEMEAKRKQEEEERKKREDDEKRIQAEVEAQLARQKEEESQQQAVLEQERRDRELALRIAQSEAELISDEAQADLALRRSLDSYPVSKNDGTRPKMTPEQMAKEMSEFLSRGPAVLATKAAAGTKKYDLSKWKYAELRDTINTSCDIELLAACREEFHRRLKVYHAWKSKNKKRNTETEQRAPKSVTDYDFAPFLNNSPQQNPAAQIPARQREIEMNRQQRFFRIPFIRPADQYKDPQSKKKGWWYAHFDGPWIARQMELHPDKPPILLVAGKDDMEMCELNLEETGLTRKRGAEILPRQFEEIWERCGGIQYLQNAIESRQARPTYATAMLQSLLK

Variants of: B1
Conditions: with ubb_human UBB

Variant	effect of a mutation on the interaction
A58G	decreasing interaction

Variants of: B1
Conditions: with ubb_human UBB
Remark: another data set of the same source

Variant	effect of a mutation on the interaction
Y25F	decreasing interaction

Variants of: B2
Conditions: with ubb_human UBB

Variant	effect of a mutation on the interaction
A1013G	decreasing interaction
